Measured values: patent US20260034230A1 (Regeneron, published 2026)

Legend:
[1] = molecular target: T1, REGN2431 (hmm.hTfRC): monomeric human Tfrc ectodomain (C89-F760) with N-terminal hexahistidine-myc-myc tag (human, UniProt P02786 89-760); assay: SPR Biacore, IgG captured by anti-hFc, 25 C
T1 construct: also called hmm.hTfR(C89-F763); hTFR-mmh
Protocol: (§1) Biacore binding kinetics assays were conducted for the interaction of 32 anti-human TfR IgG1 monoclonal antibodies from CHO supernatants with TfR reagents at 25° C.
(§2) Equilibrium dissociation constants (KD) for the interaction of anti-TfR monoclonal antibodies with human and fascicularis monkey TfR ecto domain recombinant proteins were determined using a real-time surface plasmon resonance (SPR) based Biacore S200 biosensor. All binding studies were performed in 10 mM HEPES, 150 mM NaCl, 3 mM EDTA, and 0.05% v/v surfactant Tween-20, pH 7.4 (HBS-EP) running buffer at […]. The Biacore CM5 sensor surface was first derivatized by amine coupling with a monoclonal mouse anti-human Fc antibody (REGN2567) followed by a step to capture anti-TfR monoclonal antibodies in CHO conditioned media. […] The dissociation of TfR bound to anti-TfR monoclonal antibodies was monitored for 3 minutes in HBS-EP running buffer. At the end of each cycle, the anti-TfR monoclonal antibodies capture surface was regenerated using a 12-see injection of 20 mM H₃PO₄. The association rate (ka) and dissociation rate (kd) were determined by fitting the real-time binding sensorgrams to a 1:1 binding model with mass transport limitation using Scrubber 2.0c software. The dissociation equilibrium constant (KD) and dissociative half-life (t %) were calculated from the kinetic rate constants as: […]

[2] = molecular target: T2, REGN2054 (mf TFRC ecto-mmh): monomeric monkey (cyno) Tfrc ectodomain (C89-F760) with C-terminal … (monkey (cyno, Macaca fascicularis), UniProt H9EXL1 89-760); assay: SPR Biacore, IgG captured by anti-hFc, 25 C
T2 construct: range 89-760; also called mfTFR-mmh; mfTfR-mmh
T2 sequence (chain, as listed by the source): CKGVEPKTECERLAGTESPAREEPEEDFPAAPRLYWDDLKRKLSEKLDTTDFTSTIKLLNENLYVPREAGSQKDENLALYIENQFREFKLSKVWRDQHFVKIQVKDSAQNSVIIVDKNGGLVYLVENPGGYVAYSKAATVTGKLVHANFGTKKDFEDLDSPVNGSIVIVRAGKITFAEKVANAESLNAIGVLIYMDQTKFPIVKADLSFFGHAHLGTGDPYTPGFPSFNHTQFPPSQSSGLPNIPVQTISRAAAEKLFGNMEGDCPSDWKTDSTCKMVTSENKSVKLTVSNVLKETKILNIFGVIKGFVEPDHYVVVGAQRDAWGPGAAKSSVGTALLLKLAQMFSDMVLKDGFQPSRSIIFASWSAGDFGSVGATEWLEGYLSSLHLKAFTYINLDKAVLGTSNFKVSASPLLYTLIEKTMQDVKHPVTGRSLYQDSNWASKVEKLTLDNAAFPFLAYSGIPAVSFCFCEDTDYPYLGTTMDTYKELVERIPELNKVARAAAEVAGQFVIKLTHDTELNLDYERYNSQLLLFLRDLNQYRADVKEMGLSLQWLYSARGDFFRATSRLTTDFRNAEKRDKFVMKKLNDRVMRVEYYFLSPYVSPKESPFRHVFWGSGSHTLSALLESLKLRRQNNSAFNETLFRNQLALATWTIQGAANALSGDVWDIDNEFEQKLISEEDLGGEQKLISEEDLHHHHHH
Protocol: as §1, §2

T1 sequence (P02786 other isoform, or with tags, fused parts or gaps): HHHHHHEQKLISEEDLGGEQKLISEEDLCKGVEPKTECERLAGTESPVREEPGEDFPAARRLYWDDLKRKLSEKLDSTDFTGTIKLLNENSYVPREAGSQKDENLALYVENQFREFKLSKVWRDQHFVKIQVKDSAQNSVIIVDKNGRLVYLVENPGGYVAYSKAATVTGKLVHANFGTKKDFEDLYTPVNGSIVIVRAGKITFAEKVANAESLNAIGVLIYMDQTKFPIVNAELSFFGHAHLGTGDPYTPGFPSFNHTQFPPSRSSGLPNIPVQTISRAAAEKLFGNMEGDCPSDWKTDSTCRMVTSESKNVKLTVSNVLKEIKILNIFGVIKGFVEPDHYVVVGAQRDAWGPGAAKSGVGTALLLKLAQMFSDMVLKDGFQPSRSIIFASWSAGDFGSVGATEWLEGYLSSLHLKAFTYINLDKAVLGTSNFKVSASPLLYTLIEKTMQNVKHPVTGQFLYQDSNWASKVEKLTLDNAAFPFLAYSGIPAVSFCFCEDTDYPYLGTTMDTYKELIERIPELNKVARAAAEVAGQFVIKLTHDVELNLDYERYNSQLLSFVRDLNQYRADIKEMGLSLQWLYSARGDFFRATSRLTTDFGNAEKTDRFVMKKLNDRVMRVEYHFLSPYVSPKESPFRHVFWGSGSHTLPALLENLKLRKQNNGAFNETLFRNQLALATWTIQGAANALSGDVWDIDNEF

Binder | t1/2 [1] [min] | t1/2 [2] [min]
12816B anti-hTfR monoclonal antibody (bivalent IgG1) (antibody, V domains shown, hIgG1/kappa) VH: QVQLVESGGGLVKPGGSLRLSCAASGFTFSDYYMNWIRQAPGKGLEWVSYISSSGTTIYYADSVKGRFTISRDNAKKSLYLEMNSLRAEDTAVYYCAREGYGNDYYYYGIDVWGQGTTVTVSS VL: not shown | 34.3 | 23.8
12798B anti-hTfR monoclonal antibody (bivalent IgG1) (antibody, V domains shown, hIgG1/kappa; also called H1H12798B; REGN17507) VH: EVQLVESGGDLVQPGRSLRLSCAASGFTFDDYAMHWVRQAPGKGLEWVSGISWNSATRVYADSVKGRFTISRDNAKNFLYLQMNSLRSEDTALYHCAKDMDISLGYYGLDVWGQGTTVTVSS VL: not shown | 183 | 9
12841B anti-hTfR monoclonal antibody (bivalent IgG1) (antibody, V domains shown, hIgG1/kappa; also called H1H12841B; REGN17511) VH: EVQLVESGGGLVQPGGSLRLSCAASGFTFSNYWMNWVRQAPGKGLEWVANIKEDGGKKLYVDSVKGRFTISRDNAKNSLFLQMNSLRAEDTAVYYCAREDTTLVVDYYYYGMDVWGQGTTVTVSS VL: not shown | 99.8 | 
12834B anti-hTfR monoclonal antibody (bivalent IgG1) (antibody, V domains shown, hIgG1/kappa) VH: QVQLVQSGAEVKKPGASVKVSCKASGYTFTSYGISWVRQAPGQGLEWMGWISVYHGNTNYAQKFQGRVTMTTDTSTSTAYMELRSLRSDDTAVYYCAREGYYDFWSGYYPFDYWGQGTLVTVSS VL: not shown | 2.6 | 
12833B anti-hTfR monoclonal antibody (bivalent IgG1) (antibody, V domains shown, hIgG1/kappa) VH: QVQLVESGGGVVQPGRSLRLSCAASGFTFSSFGMHWVRQAPGKGLEWVIFISYDGSDKYYADSVKGRFAISRDSSKNTLYLQMNSLRAEDTAVYYCAKENGILTDSYGMDVWGQGTTVTVSS VL: not shown | 45.9 | 23.8
12799B anti-hTfR monoclonal antibody (bivalent IgG1) (antibody, V domains shown, hIgG1/kappa; also called H1H12799B; REGN17508) VH: QITLKESGPTLVKPTQTLTLTCTFSGFSLSTSGVGVVWIRQPPGKALEWLALIYWNDHKRYSPSLGSRLTITKDTSKNQVVLTMTNMDPVDTATYYCAHYSGSYSYYYYGLDVWGQGTTVTVSS VL: DIQMTQSPSSVSASVGDRVTITCRASQGIASWLAWYQQKPGKAPELLIYAASSLQGGVPSRFSGSGSGTDFTLTISSLQPEDFAIYYCQQANYFPWTFGQGTKVEIKR | 174 | 71.2
12850B anti-hTfR monoclonal antibody (bivalent IgG1) (antibody, V domains shown, hIgG1/kappa; also called H1H12850B; REGN17516) VH: QVQLVQSGAEVKKPGSSVKVSCKASGGTFNTYAITWVRQAPGQGLEWMGGIIPISGIAEYAQKFQGRVTITTDDSSTTAYMELNSLRSEDTAVYYCASWNYALYYFYGMDVWGRGTTVTVSS VL: not shown | 657 | 7.3
12839B anti-hTfR monoclonal antibody (bivalent IgG1) (antibody, V domains shown, hIgG1/kappa; also called H1H12839B; REGN17510) VH: QVQLVESGGGVVQPGRSLRLSCAASGFPFSNYVMYWVRQAPGKGLEWVALIFFDGKKNYHADSVKGRFTITRDNSKNMLYLQMNSLRPEDAAVYYCAKIHCPNGVCYKGYYGMDVWGQGTTVTVSS VL: not shown | 217 | 
69307 anti-hTfR monoclonal antibody (bivalent IgG1) (antibody, V domains shown, hIgG1/kappa) VH: EVQLVESGGGLVQPGGSLRLSCTASGFTFSNYWMTWVRQAPGKGLEWVANIKEDGSEKEYVDSVKGRFTISRDNAKNSLYLQMNSLRGEDTAVYYCARDGEQLVDYYYYYVMDVWGQGTTVTVSS VL: DIQMTQSPSSVSASVGDRVTITCRASQGISSWLAWYQQKPGKAPKLLIYAASSLQSGVPSRFSGSGSGTDFTLTISSLQPEDFATYYCQKADSLPYAFGQGTKLEIKR | 271 | 
12812B anti-hTfR monoclonal antibody (bivalent IgG1) (antibody, V domains shown, hIgG1/kappa; also called H1H12812B; REGN17708) VH: QVQLVQSGAEVKKPGSSVRVSCKASRGTFSSYAISWVRQAPGQGLEWMGGIIPIFGTANYAQKFLARVTITADESTSTAYMELSSLRSEDTAVYYCAREKGWNYFDYWGQGTLVTVSS VL: DIQMTQSPPSVSASVGDRVTITCRASQGISSWLAWYQQKPGKAPKLLIYAASSLQSGVPSRFSGSGSGTDFTLTISSLQPEDFATYYCQQANSFPRTFGQGTKVEIKR | 8.8 | 
12795B anti-hTfR monoclonal antibody (bivalent IgG1) (antibody, V domains shown, hIgG1/kappa) VH: EVQLVESGGGLVQPGGSLRLSCATSGFTFTSYDMKWVRQAPGLGLEWVSAISGSGGNTYYADSVKGRFTISRDNSRNTLYLQMNSLRAEDTAVYYCTRSHDFGAFDYFDYWGQGTLVTVSS VL: DIQMTQSPSSLSASVGDRVTITCRASQGIRDHFGWYQQKPGKAPKRLIYAASSLHSGVPSRFSGSGSGTEFTLTISSLQPEDFATYYCLQYDTYPLTFGGGTKVEIKR | > 1160 | 162
12845B anti-hTfR monoclonal antibody (bivalent IgG1) (antibody, V domains shown, hIgG1/kappa; also called H1H12845B; REGN17513) VH: EVQLVESGGGLVQPGGSLRLSCAASGFTVSNYEMNWVRQAPGKGLEWVSYISSSTSNIYYADSVKGRFTISRDNAENSLYLQMNSLRVEDTAVYYCVRDGIVVVPVGRGYYYYGLDVWGQGTTVTVSS VL: not shown | 57.9 | 

Further lines, results first:

t1/2 [1] [min] | t1/2 [2] [min] | Binder
143 | 28.7 | 69261 anti-hTfR monoclonal antibody (bivalent IgG1) (antibody, V domains shown, hIgG1/kappa) VH: QVQLVESGGGLVKPGGSLRLSCAASGFTFSVYYMNWIRQAPGKGLEWVSYISSSGSTIYYADSVKGRFTISRDNAKNSLYLQMNSLRAEDTAVYYCGREGYSGTYSYYGMDVWGQGTTVTVSS VL: not shown
45.1 |  | 69326 anti-hTfR monoclonal antibody (bivalent IgG1) (antibody, V domains shown, hIgG1/kappa) VH: EVQLVESGGGLVQPGGSLRLSCAVSGFIFSSYEMNWVRQAPGKGLEWVSYISSSGSTIFYADSVKGRFTISRDNAKNSLYLQMNSLRAEDTAVYYCVSGVVLFDVWGQGTMVTVSS VL: EIVMTQSPATLSVSPGERATLSCRASQSVSSNFAWYQQKPGQAPRLLIYSASSRATGIPVRFSGSGSGTEFTLTISSLQSEDFAVYYCQQYNIWPRTFGQGTKVEIKR
64.1 | 1.1 | 69323 anti-hTfR monoclonal antibody (bivalent IgG1) (antibody, V domains shown, hIgG1/kappa) VH: EVQLVESGGGLVQPGRSLRLSCAASGFTFDDYAMHWVRQAPGKGLEWVSGISWNSGYIGYADSVKGRFTISRDNAENSLHLQMNSLRAEDTALYYCARGGSTLVRGVKGGYYGMDVWGQGTTVTVSS VL: not shown
62.2 |  | 69329 anti-hTfR monoclonal antibody (bivalent IgG1) (antibody, V domains shown, hIgG1/kappa) VH: EVQLVESGGGLVQPGGSLRLSCAASGFTFSNYWMTWVRQAPGKGLEWVANIKEDGSEKDYVDSVKGRFTISRDNAKNSLYLQMNSLRGEDTAVYYCARDGEQLVDYYYYYVMDVWGQGTTVTVSS VL: DIQMTQSPSSVSASVGDRVTITCRASQGISSWLAWYQQKPGKAPKLLIYAASSLQSGVPSRFSGSGSGTDFTLTISSLQPEDFATYYCQKANSFPYTFGQGTKLEIKR
67.2 | 25.1 | 69348 anti-hTfR monoclonal antibody (bivalent IgG1) (antibody, V domains shown, hIgG1/kappa) VH: QVQLVESGGGVVQPGRSLRLSCAASGFTFTTYGMHWVRQAPGKGLEWVAVIWYDGSNKYYGDSVKGRFTISRDNSKNTLYLQMNSLRVDDTAVYYCTRTHGYTRSSDGFDYWGQGTLVTVSS VL: DIQMTQSPSSLSASVGDRVTITCRASQSIRNVLGWFQQKPGKAPQRLIYAASSLQSGVPSRFSGSGSGTEFTLTISSLQPEDFATYYCLQHNFYPLTFGGGTKVEIKR
> 1160 | 3.9 | 31863B anti-hTfR monoclonal antibody (bivalent IgG1) (antibody, V domains shown, hIgG1/kappa) VH: EVQLVESGGGLVQPGGSLRLSCAASGFTFNSYAMTWVRQAPGKGLEWVSFIGGSTGNTYYAGSVKGRFTISSDNSKKTLYLQMNSLRAEDTAVYYCAKGGAARRMEYFQHWGQGTLVTVSS VL: DIQMTQSPSSLSASIGDRVTITCRASQGISNYLAWYQQKPGKVPKLLIYAASTLQSGVPSRFSGSGSGTDFTLTISSLQPEDVATYYCQNHNSVPLTFGGGTKVEIKR
10 | 3.1 | 69263 anti-hTfR monoclonal antibody (bivalent IgG1) (antibody, V domains shown, hIgG1/kappa) VH: EVQLVESGGGLVQPGRSLRLSCAVSGFTFDDYAMHWVRQAPGKGLEWVSGISWNSGTRGYADSVKGRFTISRDNAKNSLYLQMNSLRGEDTALYYCVKDITISPNYYGMDVWGQGTTVTVSS VL: DIQMTQSPSSLSASVGDRVTITCRASQDISHYSAWYQQKPGKLPNLLIYAASTLQSGVPSRFSGSGSGTDFSLTTSSLQPEDVATYYCQKYNSVPLTFGGGTKVEIKR
2.5 | 1.2 | 69331 anti-hTfR monoclonal antibody (bivalent IgG1) (antibody, V domains shown, hIgG1/kappa) VH: QVQLVESGGGVVQPGRSLRLSCIASGFTFSVYGIHWVRQAPGKGLEWMAVISHDGNIKHYADSVKGRFTISRDNSKNTLYLQINSLRTEDTAVYYCAKDTWNSLDTFDIWGQGTMVTVSS VL: DIQLTQSPSSLSASVGDRVTITCWASQGISSYLAWYQQKPGKAPKLLIYAASTLQSGVPSRFSGSGSGTEFTLTISSLQPEDFATYYCQQLNSYPLTFGGGTKVEIKR
100 | 1.2 | 31874B anti-hTfR monoclonal antibody (bivalent IgG1) (antibody, V domains shown, hIgG1/kappa; also called H1H31874B; REGN17517) VH: EVQLVESGGGLVQPGGSLRLSCAASGFAFSSYAMTWVRQAPGKGLEWVSVISGTGGSTYYADSVKGRFTISRDNSKNTLYLQMNSLRAEDTAVYYCAKGGAARRMEYFQYWGQGTLVTVSS VL: DIQMTQSPSSLSASVGDRVTITCRASQGISNYLAWYQQKPGKVPNLLIYAASTLQSGVPSRFSGSGSGTDFTLTISSLQPEDVATYYCQKYNSAPLTFGGGTKVEIKR
185 | 16 | 69340 anti-hTfR monoclonal antibody (bivalent IgG1) (antibody, V domains shown, hIgG1/kappa) VH: EVQLVESGGGLVQPGRSLRLSCAASGFTFDDKAMHWVRQVPGKGLEWISGISWNSGTIGYADSVKGRFIISRDNAKNSLYLQMNSLRAEDTALYYCAKDGDTSGWYWYGLDVWGQGTTVTVSS VL: EIVLTQSPATLSLSPGERATLSCRASQSVSSYLAWYQQKPGQAPRLLIHDVSNRATGIPARFSGSGSGTDFTLTISSLEPEDFVVYYCQQRSDWPITFGQGTRLEIKR
